Assay [1] addresses HIV-1 92RW020 Env (HIV-1). The assay can be described thus: cell-based or functional assay.
Assay [2] concerns the target HIV-1 Env of isolate MGRM-AE-004 (pseudovirus) (HIV-1). The assay can be described thus: cell-based or functional assay.
The target of assay [3] is HIV-1 Env of isolate MGRM-AE-005 (pseudovirus) (HIV-1). The assay can be described thus: cell-based or functional assay.
Assay [4] concerns the target HIV-1 Env of isolate MGRM-AE-006 (pseudovirus) (HIV-1). The experiment in a line: cell-based or functional assay.
For assay [5], the target named is HIV-1 Env of isolate MGRM-AE-007 (pseudovirus) (HIV-1). The experiment in a line: cell-based or functional assay.
Assay [6] addresses HIV-1 JR-CSF Env K421A (HIV-1 (isolate JR-CSF)) (UniProt P20871). The assay can be described thus: cell-based or functional assay.
For assay [7], the target named is HIV-1 JR-CSF Env N301A (HIV-1 (isolate JR-CSF, clade B)) (UniProt P20871). The assay can be described thus: cell-based or functional assay.
Assay [8] deals with JR-FL gp120 ΔV1/ΔV2 (HIV-1 JR-FL). The experiment in a line: ELISA, antigen-coated wells, mAb titrated; EC50 by nonlinear regression.
For assay [9], the target named is WT JR-FL gp120 (HIV-1 JR-FL). The description is as above.
The target in assay [10] is HIV-1 Env of isolate 92UG031 (pseudovirus) (HIV-1). The experiment in a line: cell-based or functional assay.
Assay [11] has as its target HIV-1 Env of isolate 92UG037 (pseudovirus) (HIV-1). The assay can be described thus: cell-based or functional assay.
The target of assay [12] is HIV-1 Env of isolate 92WR020 (pseudovirus) (HIV-1). The assay can be described thus: cell-based or functional assay.
Assay [13] concerns the target HIV-1 Env of isolate 92WR021 (pseudovirus) (HIV-1). The experiment in a line: cell-based or functional assay.
In assay [14] the target is HIV-1 Env of isolate 92WR024 (pseudovirus) (HIV-1). The assay can be described thus: cell-based or functional assay.
The target in assay [15] is HIV-1 Env of isolate 93IN905 (HIV-1). The experiment in a line: cell-based or functional assay.
Assay [16] addresses HIV-1 Env of isolate 93MW959 (HIV-1). The assay can be described thus: cell-based or functional assay.
The target of assay [17] is HIV-1 Env of isolate 93UG077 (pseudovirus) (HIV-1). The assay can be described thus: cell-based or functional assay.
Assay [18] concerns the target HIV-1 Env of isolate 93WR029 (pseudovirus) (HIV-1). The experiment in a line: cell-based or functional assay.
Assay [19] addresses HIV-1 Env of isolate 94UG103 (pseudovirus) (HIV-1). The experiment in a line: cell-based or functional assay.
The target of assay [20] is HIV-1 Env of isolate 97ZA012 (HIV-1). The assay can be described thus: cell-based or functional assay.
Assay [21] deals with HIV-1 Env of isolate 98IN022 (HIV-1). The experiment in a line: cell-based or functional assay.
The target in assay [22] is HIV-1 Env of isolate JRCSF (HIV-1) (UniProt P20871). The experiment in a line: cell-based or functional assay.
For assay [23], the target named is HIV-1 Env of isolate MGRM-A-010 (subtype A) (HIV-1). The experiment in a line: cell-based or functional assay.
Assay [24] addresses HIV-1 Env of isolate MGRM-AE-006 (subtype AE) (HIV-1). The experiment in a line: cell-based or functional assay.
For assay [25], the target named is HIV-1 Env of isolate MGRM-Chronic-B-010 (HIV-1). The assay can be described thus: cell-based or functional assay.
Assay [26] addresses HIV-1 Env of isolate MGRM-Chronic-B-011 (HIV-1). The experiment in a line: cell-based or functional assay.
Assay [27] deals with HIV-1 Env of isolate MGRM-Chronic-B-012 (HIV-1). The experiment in a line: cell-based or functional assay.
Assay [28] deals with HIV-1 Env of isolate MGRM-Chronic-B-017 (HIV-1). The experiment in a line: cell-based or functional assay.
Assay [29] has as its target HIV-1 Env of isolate MGRM-Chronic-B-018 (HIV-1). The assay can be described thus: cell-based or functional assay.
The target of assay [30] is HIV-1 Env of isolate MGRM-Chronic-B-020 (HIV-1). The experiment in a line: cell-based or functional assay.
For assay [31], the target named is HIV-1 Env of isolate MGRM-Chronic-B-023 (HIV-1). The assay can be described thus: cell-based or functional assay.
The target in assay [32] is HIV-1 Env of isolate MGRM-Chronic-B-024 (HIV-1). The assay can be described thus: cell-based or functional assay.
Assay [33] concerns the target HIV-1 Env of isolate MGRM-F1-012 (HIV-1). The assay can be described thus: cell-based or functional assay.
For assay [34], the target named is HIV-1 Env of isolate NL43 (HIV-1). The experiment in a line: cell-based or functional assay.
Assay [35] deals with HIV-1 Env of isolate PVO.4 (HIV-1). The assay can be described thus: cell-based or functional assay.
For assay [36], the target named is HIV-1 Env of isolate QH0692.42 (HIV-1). The experiment in a line: cell-based or functional assay.
Assay [37] deals with HIV-1 Env of isolate SC422661.8 (HIV-1). The experiment in a line: cell-based or functional assay.
Assay [38] has as its target HIV-1 Env of isolate SF162 (HIV-1) (UniProt P19550). The assay can be described thus: cell-based or functional assay.
Assay [39] addresses HIV-1 Env of isolate THR0.18 (HIV-1). The assay can be described thus: cell-based or functional assay.
Assay [40] has as its target HIV-1 Env of isolate TRJ04551.58 (HIV-1). The assay can be described thus: cell-based or functional assay.
The target in assay [41] is HIV-1 Env of isolate TRO.11 (HIV-1). The experiment in a line: cell-based or functional assay.
The target of assay [42] is HIV-1 Env of isolate VLGCB3 (HIV-1). The assay can be described thus: cell-based or functional assay.
The target in assay [43] is HIV-1 Env of isolate MGRM-C-026 (subtype C), on pseudovirus (HIV-1). The experiment in a line: cell-based or functional assay.
For assay [44], the target named is HIV-1 Env of isolate MGRM-G-024 (subtype G) (HIV-1). The experiment in a line: cell-based or functional assay.
Assay [45] deals with HIV-1 Env of pseudovirus MGRM-D-020 (HIV-1). The assay can be described thus: cell-based or functional assay.

One may read the EC50 as the midpoint of the concentration-response curve. Low values mean an effect from little substance, high ones a need for much substance. In turn, 5141_B17 (PGT-126) (antibody) registered an IC50, pseudovirus neutralization in assay [1] of 0.0046 µg/mL. For the same substance, the IC50 (µg/mL), pseudovirus neutralization in assay [2] was greater than 50 µg/mL; in assay [3], 0.324 µg/mL; in assay [4] it was 17.3 µg/mL; in [5], greater than 50 µg/mL. Besides, the Fold IC50 increase relative to wild-type (pseudovirus neutralization) in assay [6] amounted to 0.7 fold. The Fold IC50 increase relative to wild-type in assay [7] stood at 314 fold. For the same substance, the concentration giving a half-maximal response (EC50) in assay [8] was determined as 0.3 µg/mL; in assay [9] it was 0.1 µg/mL.
Take 5136_H01 (PGT-131) (antibody): the IC50 (µg/mL), pseudovirus neutralization in assay [10] is greater than 50 µg/mL; in assay [11] it was 0.048 µg/mL; in assay [12] it was 0.168 µg/mL; in [13], 0.012 µg/mL; in assay [14] it was greater than 50 µg/mL; in [15] it was 0.177 µg/mL. In addition, the IC50 (µg/mL), pseudovirus neutralization was greater than 50 µg/mL in [16]; greater than 50 µg/mL in [17]; greater than 50 µg/mL in assay [18]; 1.1 µg/mL in assay [19]; 1.81 µg/mL in [20]; greater than 50 µg/mL in [21]. Moreover, the IC50 (µg/mL), pseudovirus neutralization is 0.029 µg/mL in [22]; 0.016 µg/mL in assay [25]; 6.47 µg/mL in assay [26]; 15.7 µg/mL in assay [27]; greater than 50 µg/mL in assay [28]; greater than 50 µg/mL in assay [29]. In addition, the IC50 (µg/mL), pseudovirus neutralization was 0.053 µg/mL in assay [30]; greater than 50 µg/mL in [31]; greater than 50 µg/mL in assay [32]; greater than 50 µg/mL in assay [33]; greater than 50 µg/mL in [34]; greater than 50 µg/mL in assay [35]. In addition, the IC50 (µg/mL), pseudovirus neutralization in assay [36] was greater than 50 µg/mL; in assay [37] it was greater than 50 µg/mL; in assay [38] it was 0.025 µg/mL; in assay [39] it was greater than 50 µg/mL; in [40], 0.088 µg/mL; in assay [41], 1.91 µg/mL. The substance also registered an IC50 (µg/mL), pseudovirus neutralization in assay [42] greater than 50 µg/mL. Also, the values for the IC50, pseudovirus neutralization in [23] and in assay [24] were 0.01 µg/mL and 0.026 µg/mL, respectively. In addition, in [6], the Fold IC50 increase relative to wild-type (pseudovirus neutralization) was 11 fold. The substance also displayed a Fold IC50 increase relative to wild-type in assay [7] greater than 170 fold. In assay [9], this substance registered an EC50 of 0.4 µg/mL.
On to VRC01 (antibody), for which the IC50 (µg/mL), single-round pseudovirus neutralization in assay [10] is 0.469 µg/mL; in [11], 0.245 µg/mL; in [12], 0.13 µg/mL; in assay [13], 0.066 µg/mL; in assay [14], 0.327 µg/mL; in [17] it was 0.097 µg/mL. In addition, the IC50 (µg/mL), single-round pseudovirus neutralization stood at 1.57 µg/mL in assay [18]; 0.285 µg/mL in [19]; 0.187 µg/mL in [2]; 0.029 µg/mL in [3]; 4.65 µg/mL in [4]. Besides, the IC50, pseudovirus neutralization in assay [15] amounted to 0.138 µg/mL; in assay [16] it was 0.053 µg/mL; in assay [20], 0.088 µg/mL; in [21] it was 0.342 µg/mL; in assay [22], 0.164 µg/mL; in [25] it was 0.156 µg/mL. Besides, the IC50, pseudovirus neutralization in assay [26] turned out to be 0.587 µg/mL; in assay [27] it was 1.03 µg/mL; in [28], 0.141 µg/mL; in assay [29], 0.328 µg/mL; in assay [30], 0.424 µg/mL; in assay [31] it was 0.275 µg/mL. Besides, the IC50, pseudovirus neutralization in [32] was found to be 0.377 µg/mL; in assay [34], 0.1 µg/mL; in assay [35] it was 0.218 µg/mL; in [36], 1.19 µg/mL; in [37], 0.179 µg/mL; in [38] it was 0.421 µg/mL. Moreover, the IC50, pseudovirus neutralization in [39] was 2.46 µg/mL; in assay [40] it was 0.06 µg/mL; in assay [41], 0.186 µg/mL; in assay [42], 0.108 µg/mL; in assay [45], 0.192 µg/mL. Besides, in [43], the IC50, single-round pseudovirus neutralization stood at 0.707 µg/mL. The same substance had an IC50 (µg/mL), pseudovirus neutralization in assay [44] of 0.025 µg/mL.
For 5145_B14 (PGT-127) (antibody), the IC50 (µg/mL), pseudovirus neutralization in assay [2], in [3], in [4] and in assay [5] was greater than 50 µg/mL throughout. The Fold IC50 increase relative to wild-type (pseudovirus neutralization) in assay [6] is 1.5 fold. In [7], this substance displayed a Fold IC50 increase relative to wild-type greater than 250 fold. Besides, the figures for the concentration giving a half-maximal response (EC50) in assay [8] and in assay [9] were 0.7 µg/mL and 0.1 µg/mL, respectively.
In assay [1], 5123_A06 (PGT-125) (antibody) showed an IC50, pseudovirus neutralization of 0.0028 µg/mL. Moreover, the IC50 (µg/mL), pseudovirus neutralization is greater than 50 µg/mL in assay [2], 0.01 µg/mL in assay [3], 0.009 µg/mL in assay [4] and 0.876 µg/mL in assay [5]. For the same substance, the Fold IC50 increase relative to wild-type (pseudovirus neutralization) in [6] is 1.2 fold. Besides, the Fold IC50 increase relative to wild-type in [7] came to 213 fold. The figures for the concentration for a half-maximal effect (EC50) in assay [8] and in assay [9] were 0.6 µg/mL and 0.2 µg/mL, respectively.
